Where a chain is given by its changes, count along the chain named.
What was measured:
[1] = biological target: T1, human CCR5 (human, UniProt P51681 1-352); assay: cell-based or functional assay
[2] = biological target: T1, human CCR5; assay: cell-based or functional assay; remark: listed apart in the source
[3] = biological target: T1, human CCR5; assay: epitope mapping with alanine mutants of CCR5
[4] = biological target: T1, human CCR5; assay: cell ELISA on CCR5-expressing cells, hybridoma screening

T1 sequence (P51681 whole entry): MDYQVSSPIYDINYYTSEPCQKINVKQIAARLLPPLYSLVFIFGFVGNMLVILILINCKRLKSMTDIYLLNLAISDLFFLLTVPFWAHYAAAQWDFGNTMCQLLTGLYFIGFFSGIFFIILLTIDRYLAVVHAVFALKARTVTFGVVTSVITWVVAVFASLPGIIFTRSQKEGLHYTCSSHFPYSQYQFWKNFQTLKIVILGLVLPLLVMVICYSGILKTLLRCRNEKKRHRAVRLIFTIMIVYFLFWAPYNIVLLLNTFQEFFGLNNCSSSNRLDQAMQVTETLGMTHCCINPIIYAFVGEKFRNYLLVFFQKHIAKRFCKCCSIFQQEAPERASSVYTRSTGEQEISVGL

B1: <CCR5>Pz03.1C5 (antibody, V domains shown)
VH: QVQLKQSGPGLVRPSQSLSITCTVSGFPLGIFGVHWVRQSPGKGLEWLGVIWKGGNTDYNAAFMSRLRITKDNSKSQVFFRMNSLQTDDTAIYYCAKVNLADAMDYWGQGTSVIVSS
VL: DIQMTQSPASLSASVGETVTITCRASGNIHGYLAWFQQKQGKSPQLLVYNTKTLAEGVPSRFSGSGSGTQFSLKINSLQPEDFGNYYCQHHYDLPRTFGGGTKLEIKR
notes: also called Antibody C; m<CCR5>Pz03.1C5
IC50, PhenoSenseHIV assay (ViroLogic) using JRCSF strain [1]: 0.16 µg/ml | IC50, cell-cell fusion assay (gp160-expressing HeLa cells with CEM.NKR-CCR5-Luc cells, luciferase) [1]: 0.38 µg/mL | IC50, inhibition of HIV growth in human PBMC, JRCSF (p24 ELISA) [2]: 0.013 µg/mL | IC50, inhibition of HIV growth in human PBMC, Nl-Bal (p24 ELISA) [2]: 0.029 µg/mL | binding result [3]: binds

B2: <CCR5>Pz02.1C11 (antibody, V domains shown)
VH: B1 VH with I31V, T70S
VL: B1 VL with A25S, T53A, S77N, N85I
notes: also called Antibody B
IC50, PhenoSenseHIV assay (ViroLogic) using JRCSF strain [1]: 0.17 µg/ml | IC50, cell-cell fusion assay (gp160-expressing HeLa cells with CEM.NKR-CCR5-Luc cells, luciferase) [1]: 0.79 µg/mL | IC50, inhibition of HIV growth in human PBMC, JRCSF (p24 ELISA) [2]: 0.025 µg/mL | IC50, inhibition of HIV growth in human PBMC, Nl-Bal (p24 ELISA) [2]: 0.025 µg/mL | binding result [4]: binds

— US20070036796A1 (ROCHE PALO ALTO, published 2007)
